According to article PMC8096214:
Where two headings read alike, the source gives them in different places.

T1: MgR D284A (RNase R, catalytically inactive) (Mycoplasma genitalium, UniProt P47350 1-725, D284A)
T1 sequence: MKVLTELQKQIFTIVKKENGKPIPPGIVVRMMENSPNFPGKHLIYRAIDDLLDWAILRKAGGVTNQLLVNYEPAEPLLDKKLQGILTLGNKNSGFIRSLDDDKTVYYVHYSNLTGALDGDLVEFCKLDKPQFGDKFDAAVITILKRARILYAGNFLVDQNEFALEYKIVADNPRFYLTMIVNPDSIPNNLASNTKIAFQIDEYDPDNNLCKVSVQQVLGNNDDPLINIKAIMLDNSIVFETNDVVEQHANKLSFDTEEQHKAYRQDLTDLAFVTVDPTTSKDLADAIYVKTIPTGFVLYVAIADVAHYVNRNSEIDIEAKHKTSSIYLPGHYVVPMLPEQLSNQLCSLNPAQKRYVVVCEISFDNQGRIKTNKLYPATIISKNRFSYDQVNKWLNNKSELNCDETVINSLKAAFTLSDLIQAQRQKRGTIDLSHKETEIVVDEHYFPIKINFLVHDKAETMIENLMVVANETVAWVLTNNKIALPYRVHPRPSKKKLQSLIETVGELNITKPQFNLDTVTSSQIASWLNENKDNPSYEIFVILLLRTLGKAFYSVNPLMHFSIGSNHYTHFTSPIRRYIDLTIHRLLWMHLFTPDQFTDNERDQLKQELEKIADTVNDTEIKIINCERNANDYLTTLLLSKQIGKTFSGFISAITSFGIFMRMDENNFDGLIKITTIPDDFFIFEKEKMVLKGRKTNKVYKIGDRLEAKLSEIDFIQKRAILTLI

B1: 6-bp dsRNA with 7-nt 3' overhang (dsRNA)
RNA 1: CCGUGUAAAAAAA
RNA 2: ACACGG

Legend:
[1] = target: T1, MgR D284A (RNase R, catalytically …); assay: fluorescence polarization
[2] = target: T1, MgR D284A (RNase R, catalytically …); assay: crystal structure
[3] = target: T1, MgR D284A (RNase R, catalytically …); assay: crystal structure; remark: listed apart in the source

Binder	Kd [1] [nM]	also measured
CAAACAAAACCGUGUAAAAACAAA (ssRNA, 2'-O-methyl at G12, G14, A23 ('me' read as suffix, as in the rA15 30-mer)) [24-nt ssRNA, 2'-O-methylated]	6.63 ± 0.69	
B1		binding result [2]: binds
CAAACAAAACCGUGUAAAAACAAA (ssRNA) [24-nt ssRNA, unmethylated]	6.62 ± 0.7	
AAAA (ssRNA, 2'-O-methyl at A3 ('me' read as suffix)) [4-nt 2'-O-methylated oligo rA (AAAmeA)]		binding result [3]: binds
